Results as given in patent US20260242478A1 (published 2026).
Where no end group is shown, it is not given here.

What was measured:
PSMA Fab (006 PSMA Fab) [1] = target: T1, PSMA Fab (006 PSMA Fab) (biotinylated (site not stated)); assay: phage ELISA on captured PSMA Fab, wells pre-incubated with PSMA antigen as competitor
T1 construct: also called Anti-PSMA Fab

PSMA Fab (006 PSMA Fab) [2] = target: T1, PSMA Fab (006 PSMA Fab); assay: phage ELISA, clonal phage on biotinylated PSMA Fab captured on neutravidin plate, anti-M13 HRP detection;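 note: crude clonal phage supernatants added to wells preincubated with PSMA antigen in blocking buffer or with blocking buffer only, giving a competition and a no-competitor control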
Method: (§1) Clonal phage were harvested as crude supernatants and screened via standard ELISAs. […] Prior to the addition of clonal phage. wells were incubated with blocking buffer and PSMA antigen or blocking buffer alone. Without washing or aspirating, clonal phage supernatants were then added to the wells and incubated for a short time. Wells were then washed followed by detection of bound phage using a horse radish conjugated anti-M13 antibody.

PSMA Fab [3] = target: T2, PSMA Fab; assay: clonal phage ELISA on captured PSMA Fab pre-incubated with PSMA antigen (competitor: PSMA)
T2 construct: also called Anti-PSMA Fab; 006 PSMA Fab
Method: as §1

PSMA Fab [4] = target: T2, PSMA Fab; assay: clonal phage ELISA on biotinylated PSMA Fab captured on neutravidin, anti-M13 HRP detection;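 note: crude clonal phage supernatants added to wells pretreated with PSMA antigen in blocking buffer or with blocking buffer only, then briefly incubated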
Method: as §1

PSMA Fab [5] = target: T3, PSMA Fab; assay: phage ELISA; biotinylated PSMA Fab on neutravidin plate, clonal phage supernatant, anti-M13 HRP; no PSMA antigen
T3 construct: Biotinylated and captured on neutravidin coated plates in the phage ELISA; also called 006 PSMA Fab; Anti-PSMA Fab
Method: as §1

PSMA Fab [6] = target: T3, PSMA Fab; assay: phage ELISA; biotinylated PSMA Fab on neutravidin plate, clonal phage supernatant, anti-M13 HRP; wells pre-incubated with PSMA antigen as competitor
Method: as §1

PSMA Fab [7] = target: T4, PSMA Fab (biotinylated (site not stated)); assay: clonal phage ELISA; biotinylated PSMA Fab on neutravidin plate; anti-M13 HRP detection; blocking buffer alone
T4 construct: Biotinylated PSMA Fab captured on neutravidin plates in the phage ELISA; also called Anti-PSMA Fab; 006 PSMA Fab

PSMA Fab [8] = target: T4, PSMA Fab; assay: clonal phage ELISA; biotinylated PSMA Fab on neutravidin plate pre-incubated with PSMA antigen as competitor; anti-M13 HRP detection;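 note: crude clonal phage supernatants briefly incubated on wells preloaded with PSMA antigen in blocking buffer, or buffer only as control, bound phage detected with HRP-conjugated anti-M13 antibody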
Method: as §1

| Binder | Phage binding ELISA signal, Anti-PSMA Fab with PSMA antigen (PSMA Fab [3]) | Phage binding ELISA signal, Anti-PSMA Fab (PSMA Fab [4]) | phage binding ELISA signal (PSMA Fab [5]) | phage binding ELISA signal (PSMA Fab [6]) | further results |
| --- | --- | --- | --- | --- | --- |
| TVKWCIPSWMCQQS [Phage-2333] |  |  |  |  | phage binding ELISA signal (Anti-PSMA Fab pre-incubated with PSMA antigen) (PSMA Fab (006 PSMA Fab) [1]): 0.102; Phage binding ELISA signal, Anti-PSMA Fab (PSMA Fab (006 PSMA Fab) [2]): 1.44 |
| EFIRCLPPWMCAGF (cysteine pairing not given here; also: displayed on bacteriophage by fusion to pIII) [Phage-2334] |  |  |  |  | phage binding ELISA signal (Anti-PSMA Fab pre-incubated with PSMA antigen) (PSMA Fab (006 PSMA Fab) [1]): 0.0734; Phage binding ELISA signal, Anti-PSMA Fab (PSMA Fab (006 PSMA Fab) [2]): 1.44 |
| ASNWCIPTWMCEGS [Phage-2335] |  |  |  |  | phage binding ELISA signal (Anti-PSMA Fab pre-incubated with PSMA antigen) (PSMA Fab (006 PSMA Fab) [1]): 0.0671; Phage binding ELISA signal, Anti-PSMA Fab (PSMA Fab (006 PSMA Fab) [2]): 1.44 |
| EPKWCTPAWMCSIV [Phage-2336] |  |  |  |  | phage binding ELISA signal (Anti-PSMA Fab pre-incubated with PSMA antigen) (PSMA Fab (006 PSMA Fab) [1]): 0.0668; Phage binding ELISA signal, Anti-PSMA Fab (PSMA Fab (006 PSMA Fab) [2]): 1.44 |
| MVKLCIPEWMCDRQ [Phage-2337] |  |  |  |  | phage binding ELISA signal (Anti-PSMA Fab pre-incubated with PSMA antigen) (PSMA Fab (006 PSMA Fab) [1]): 0.0609; Phage binding ELISA signal, Anti-PSMA Fab (PSMA Fab (006 PSMA Fab) [2]): 1.44 |
| WYKWCTPAWMCEIS [Phage-2338] |  |  |  |  | phage binding ELISA signal (Anti-PSMA Fab pre-incubated with PSMA antigen) (PSMA Fab (006 PSMA Fab) [1]): 0.143; Phage binding ELISA signal, Anti-PSMA Fab (PSMA Fab (006 PSMA Fab) [2]): 1.44 |
| EGISCVPNWMCVGF [Phage-2339] |  |  |  |  | phage binding ELISA signal (Anti-PSMA Fab pre-incubated with PSMA antigen) (PSMA Fab (006 PSMA Fab) [1]): 0.119; Phage binding ELISA signal, Anti-PSMA Fab (PSMA Fab (006 PSMA Fab) [2]): 1.44 |
| LVHMCKPAWMCTNL [Phage-2340] |  |  |  |  | phage binding ELISA signal (Anti-PSMA Fab pre-incubated with PSMA antigen) (PSMA Fab (006 PSMA Fab) [1]): 0.0708; Phage binding ELISA signal, Anti-PSMA Fab (PSMA Fab (006 PSMA Fab) [2]): 1.44 |
| GEIWCTPSWMCWGL [Phage-2341] |  |  |  |  | phage binding ELISA signal (Anti-PSMA Fab pre-incubated with PSMA antigen) (PSMA Fab (006 PSMA Fab) [1]): 0.0653; Phage binding ELISA signal, Anti-PSMA Fab (PSMA Fab (006 PSMA Fab) [2]): 1.43 |
| ELMWCIPPWMCEHS [Phage-2342] |  |  |  |  | phage binding ELISA signal (Anti-PSMA Fab pre-incubated with PSMA antigen) (PSMA Fab (006 PSMA Fab) [1]): 0.0888; Phage binding ELISA signal, Anti-PSMA Fab (PSMA Fab (006 PSMA Fab) [2]): 1.43 |
| SDTWCIPAWMCEGR [Phage-2343] |  |  |  |  | phage binding ELISA signal (Anti-PSMA Fab pre-incubated with PSMA antigen) (PSMA Fab (006 PSMA Fab) [1]): 0.0667; Phage binding ELISA signal, Anti-PSMA Fab (PSMA Fab (006 PSMA Fab) [2]): 1.43 |
| LMNWCTPAWMCTGF (Peptide-180 library clone, tested as clonal phage supernatant (peptide fused to the pIII filament of the bacteriophage)) [Phage-2344] | 0.0919 | 1.43 |  |  |  |
| FDMLCNPKWMCEGF (Peptide-180 library clone, tested as clonal phage supernatant (peptide fused to the pIII filament of the bacteriophage)) [Phage-2345] | 0.0643 | 1.43 |  |  |  |
| WDRLCIPPWMCDVM (Peptide-180 library clone, tested as clonal phage supernatant (peptide fused to the pIII filament of the bacteriophage)) [Phage-2346] | 0.0803 | 1.43 |  |  |  |
| SENWCIPNWMCSGL (Peptide-180 library clone, tested as clonal phage supernatant (peptide fused to the pIII filament of the bacteriophage)) [Phage-2347] | 0.0725 | 1.43 |  |  |  |
| MEKWCTPSWMCQWM (Peptide-180 library clone, tested as clonal phage supernatant (peptide fused to the pIII filament of the bacteriophage)) [Phage-2348] | 0.0828 | 1.43 |  |  |  |
| LSNWCVPLWMCEMV (Peptide-180 library clone, tested as clonal phage supernatant (peptide fused to the pIII filament of the bacteriophage)) [Phage-2349] | 0.0796 | 1.43 |  |  |  |
| MDRWCIPEWMCARH (cysteine pairing not given here; also: displayed on bacteriophage by fusion to pIII, Peptide-180 library clone, tested as clonal phage supernatant (peptide fused to the pIII filament of the bacteriophage)) [Phage-2350] | 0.0537 | 1.43 |  |  |  |
| PMKWCIPEWMCIAS (Peptide-180 library clone, tested as clonal phage supernatant (peptide fused to the pIII filament of the bacteriophage)) [Phage-2351] | 0.102 | 1.43 |  |  |  |
| IDHWCTPAWMCRGF (Peptide-180 library clone, tested as clonal phage supernatant (peptide fused to the pIII filament of the bacteriophage)) [Phage-2352] | 0.0775 | 1.43 |  |  |  |
| SEEWCIPPWMCLGR (Peptide-180 library clone, tested as clonal phage supernatant (peptide fused to the pIII filament of the bacteriophage)) [Phage-2353] | 0.0756 | 1.43 |  |  |  |

| Binder | Phage binding ELISA signal, Anti-PSMA Fab with PSMA antigen (PSMA Fab [3]) | Phage binding ELISA signal, Anti-PSMA Fab (PSMA Fab [4]) | phage binding ELISA signal (PSMA Fab [5]) | phage binding ELISA signal (PSMA Fab [6]) | further results |
| --- | --- | --- | --- | --- | --- |
| NDHWCIPPWMCAPY (cysteine pairing not given here; also: displayed on bacteriophage by fusion to pIII, Peptide-180 library clone, tested as clonal phage supernatant (peptide fused to the pIII filament of the bacteriophage)) [Phage-2354] | 0.0707 | 1.42 |  |  |  |
| FENWCTPSWMCSGF (Peptide-180 library clone, tested as clonal phage supernatant (peptide fused to the pIII filament of the bacteriophage)) [Phage-2355] | 0.0807 | 1.42 |  |  |  |
| VPKWCTPTWMCIHM (Peptide-180 library clone, tested as clonal phage supernatant (peptide fused to the pIII filament of the bacteriophage)) [Phage-2356] | 0.0649 | 1.42 |  |  |  |
| AERWCIPSWMCELA (Peptide-180 library clone, tested as clonal phage supernatant (peptide fused to the pIII filament of the bacteriophage)) [Phage-2357] | 0.0756 | 1.42 |  |  |  |
| PVKWCVPPWMCAAT (cysteine pairing not given here; also: displayed on bacteriophage by fusion to pIII, Peptide-180 library clone, tested as clonal phage supernatant (peptide fused to the pIII filament of the bacteriophage)) [Phage-2358] | 0.0663 | 1.42 |  |  |  |
| EFKWCIPKWMCMVD (Peptide-180 library clone, tested as clonal phage (peptide fused to pIII)) [Phage-2421] |  |  | 1.33 | 0.0948 |  |
| WTNTCIPMWMCEGF (Peptide-180 library clone, tested as clonal phage (peptide fused to pIII)) [Phage-2422] |  |  | 1.33 | 0.0808 |  |
| LTNWCTPQWMCLGF (Peptide-180 library clone, tested as clonal phage (peptide fused to pIII)) [Phage-2423] |  |  | 1.33 | 0.0731 |  |
| LVNWCTPPWMCWHD (Peptide-180 library clone, tested as clonal phage (peptide fused to pIII)) [Phage-2424] |  |  | 1.33 | 0.0827 |  |
| DENWCKPLWMCEGF (Peptide-180 library clone, tested as clonal phage (peptide fused to pIII)) [Phage-2425] |  |  | 1.33 | 0.0991 |  |
| LWMSCIPPWMCANV (cysteine pairing not given here; also: displayed as fusion to phage pIII, Peptide-180 library clone, tested as clonal phage (peptide fused to pIII)) [Phage-2426] |  |  | 1.33 | 0.137 |  |
| EYKWCVPIWMCAYD (cysteine pairing not given here; also: displayed as fusion to phage pIII, Peptide-180 library clone, tested as clonal phage (peptide fused to pIII)) [Phage-2427] |  |  | 1.33 | 0.0826 |  |
| ADRLCIPPWMCEMK (Peptide-180 library clone, tested as clonal phage (peptide fused to pIII)) [Phage-2428] |  |  | 1.33 | 0.0685 |  |
| GEKWCIPEWMCVTT (Peptide-180 library clone, tested as clonal phage (peptide fused to pIII)) [Phage-2429] |  |  | 1.32 | 0.0637 |  |
| EIKWCTPPWMCTIG (Peptide-180 library clone, tested as clonal phage (peptide fused to pIII)) [Phage-2430] |  |  | 1.32 | 0.102 |  |
| VLKWCTPPWMCWDI (Peptide-180 library clone, tested as clonal phage (peptide fused to pIII)) [Phage-2431] |  |  | 1.32 | 0.123 |  |
| EVKWCIPNWMCAAS (cysteine pairing not given here; also: displayed as fusion to phage pIII, Peptide-180 library clone, tested as clonal phage (peptide fused to pIII)) [Phage-2432] |  |  | 1.32 | 0.077 |  |
| GDNWCKPAWMCRDM (Peptide-180 library clone, tested as clonal phage (peptide fused to pIII)) [Phage-2433] |  |  | 1.32 | 0.0728 |  |
| EERWCIPEWMCSRI (Peptide-180 library clone, tested as clonal phage (peptide fused to pIII)) [Phage-2434] |  |  | 1.32 | 0.0557 |  |
| GINWCTPSWMCTGF (Peptide-180 library clone, tested as clonal phage (peptide fused to pIII)) [Phage-2435] |  |  | 1.31 | 0.0711 |  |
| MPKWCTPSWMCSPS [Phage-2436] |  |  |  |  | Phage binding ELISA signal, Anti-PSMA Fab (PSMA Fab [7]): 1.31; Phage binding ELISA signal, Anti-PSMA Fab in presence of PSMA (PSMA Fab [8]): 0.0576 |
